Values of other authors, collected in patent US8623366B2, “Methods for treating visceral pain by administering antagonist antibodies directed against calcitonin gene-related peptide” (Labrys Biologics, Inc., priority 2009, dated 2014).
Changes are numbered by the printed parent chain. Numbers in names are those of the source.

T1: human α-CGRP (Homo sapiens, UniProt P06881)
T1 sequence (P06881 83-119 limits assumed): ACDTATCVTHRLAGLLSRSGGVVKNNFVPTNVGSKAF

T2: α-rat CGRP (Rattus norvegicus, UniProt P01256)
T2 sequence (P01256 83-119 limits assumed): T1 sequence (P06881 83-119 limits assumed) with A1S, D3N, N25D, K35E

B1: M65: G1 variant: L1 R28N T30G; L2 G50A L56I; H2 E54K A57C; HC-FW3 L99T A100V (antibody, chains of the INN, looked up, variant L:R28N L:T30G L:G50A L:L56I H:E54K H:A57C H:L99T H:A100V, V domains shown)
VH: EVQLVESGGGLVQPGGSLRLSCAASGFTFSNYWISWVRQAPGKGLEWVAEIRSKSDCSATHYAEAVKGRFTISRDNAKNSLYLQMNSLRAEDTAVYYCTVYFDYGLAIQNYWGQGTLVTVSS
VL: EIVLTQSPATLSLSPGERATLSCKASKNVGTYVSWYQQKPGQAPRLLIYAASNRYIGIPARFSGSGSGTDFTLTISSLEPEDFAVYYCSQSYNYPYTFGQGTKLEIK
B2: M67: G1 variant: L1 R28N T30G; L2 L56I; H2 E54K A57F; HC-FW3 L99T A100V (antibody, chains of the INN, looked up, variant L:R28N L:T30G L:L56I H:E54K H:A57F H:L99T H:A100V, V domains shown)
VH: B1 VH with C57F
VL: B1 VL with A50G
B3: M77: G1 variant: L1 R28N T30S; L2 G50A L56T; H2 E54K A57D; HC-FW3 L99T A100V (antibody, chains of the INN, looked up, variant L:R28N L:T30S L:G50A L:L56T H:E54K H:A57D H:L99T H:A100V, V domains shown)
VH: B1 VH with C57D
VL: B1 VL with G30S, I56T
B4: M75: G1 variant: L1 R28N T30G; L2 L56S; H2 E54K A57V; HC-FW3 L99T A100V (antibody, chains of the INN, looked up, variant L:R28N L:T30G L:L56S H:E54K H:A57V H:L99T H:A100V, V domains shown)
VH: B1 VH with C57V
VL: B1 VL with A50G, I56S
B5: M78: G1 variant: L1 R28N T30S; L2 G50A L56T; H2 E54K A57N S58T; HC-FW3 L99T A100V (antibody, chains of the INN, looked up, variant L:R28N L:T30S L:G50A L:L56T H:E54K H:A57N H:S58T H:L99T H:A100V, V domains shown)
VH: B1 VH with C57N, S58T
VL: B1 VL with G30S, I56T
B6: M23: G1 variant: L1 R28G; HC-FW3 L99T A100V (antibody, chains of the INN, looked up, variant L:R28G H:L99T H:A100V, V domains shown)
VH: B1 VH with K54E, C57A
VL: B1 VL with N28G, G30T, A50G, I56L
B7: M84: G1 variant: L1 R28N T30V; L2 A51H L56T; H2 E54N A57N; HC-FW3 L99T A100V (antibody, chains of the INN, looked up, variant L:R28N L:T30V L:A51H L:L56T H:E54N H:A57N H:L99T H:A100V, V domains shown)
VH: B1 VH with K54N, C57N
VL: B1 VL with G30V, A50G, A51H, I56T
B8: M73: G1 variant: L1 R28N T30G; L2 L56S; H2 E54K A57N S58Y E64D; HC-FW3 L99T A100V (antibody, chains of the INN, looked up, variant L:R28N L:T30G L:L56S H:E54K H:A57N H:S58Y H:E64D H:L99T H:A100V, V domains shown)
VH: B1 VH with C57N, S58Y, E64D
VL: B1 VL with A50G, I56S
B9: M24: G1 variant: L1 R28L; HC-FW3 L99T A100V (antibody, chains of the INN, looked up, variant L:R28L H:L99T H:A100V, V domains shown)
VH: B1 VH with K54E, C57A
VL: B1 VL with N28L, G30T, A50G, I56L
B10: M69: G1 variant: L1 R28N T30G; L2 L56I; H2 E54K A57N S58E; HC-FW3 L99T A100V (antibody, chains of the INN, looked up, variant L:R28N L:T30G L:L56I H:E54K H:A57N H:S58E H:L99T H:A100V, V domains shown)
VH: B1 VH with C57N, S58E
VL: B1 VL with A50G
B11: M74: G1 variant: L1 R28N T30G; L2 L56S; H2 E54K A57S; HC-FW3 L99T A100V (antibody, chains of the INN, looked up, variant L:R28N L:T30G L:L56S H:E54K H:A57S H:L99T H:A100V, V domains shown)
VH: B1 VH with C57S
VL: B1 VL with A50G, I56S

Assays:
human α-CGRP = molecular target: T1, human α-CGRP; conditions: Table 6 reproduced from WO2007/054809; cited from earlier work
α-rat CGRP = molecular target: T2, α-rat CGRP; conditions: Table 6 reproduced from WO2007/054809; cited from earlier work

| Molecule | Kd (human α-CGRP) [nM] | Kd (α-rat CGRP) [nM] |
| --- | --- | --- |
| B1 | 5.02 | 226 |
| B2 | 5.13 | 95 |
| B3 | 2.98 | 794 |
| B4 | 7.25 | 1040 |
| B5 | 8.19 | 9280 |
| B6 | 0.81 | 44.4 |
| B7 | 6.75 | 978 |
| B8 | 1.59 | 167 |
| B9 | 0.93 | 57.8 |
| B10 | 4.58 | 101 |
| B11 | 3.73 | 335 |
